Square brackets hold non-standard residues; d marks the D form.
B1: [lLwHsK]: Cyclo-D-leucine-L-leucine-D-tryptophan-L-histidine-D-serine-L-lysine (peptide)
peptide: cyclo([dL]L[dW]H[dS]K)
SMILES: CC(C)C[C@@H]1NC(=O)[C@@H](CC(C)C)NC(=O)[C@H](CCCCN)NC(=O)[C@@H](CO)NC(=O)[C@H](Cc2c[nH]cn2)NC(=O)[C@@H](Cc2c[nH]c3ccccc23)NC1=O
B2: [lLaHsK]: Cyclo-D-leucine-L-leucine-D-alanine-L-histidine-D-serine-L-lysine (peptide)
peptide: cyclo([dL]L[dA]H[dS]K)
SMILES: CC(C)C[C@@H]1NC(=O)[C@@H](CC(C)C)NC(=O)[C@H](CCCCN)NC(=O)[C@@H](CO)NC(=O)[C@H](Cc2c[nH]cn2)NC(=O)[C@@H](C)NC1=O
B3: [lLwAsK]: Cyclo-D-leucine-L-leucine-D-tryptophan-L-alanine-D-serine-L-lysine (peptide)
peptide: cyclo([dL]L[dW]A[dS]K)
SMILES: CC(C)C[C@@H]1NC(=O)[C@@H](CC(C)C)NC(=O)[C@H](CCCCN)NC(=O)[C@@H](CO)NC(=O)[C@H](C)NC(=O)[C@@H](Cc2c[nH]c3ccccc23)NC1=O
B4: [aLwHsK]: Cyclo-D-alanine-L-leucine-D-tryptophan-L-histidine-D-serine-L-lysine (peptide)
peptide: cyclo([dA]L[dW]H[dS]K)
SMILES: CC(C)C[C@@H]1NC(=O)[C@@H](C)NC(=O)[C@H](CCCCN)NC(=O)[C@@H](CO)NC(=O)[C@H](Cc2c[nH]cn2)NC(=O)[C@@H](Cc2c[nH]c3ccccc23)NC1=O
B5: [lLwHsA]: Cyclo-D-leucine-L-leucine-D-tryptophan-L-histidine-D-serine-L-alanine (peptide)
peptide: cyclo([dL]L[dW]H[dS]A)
SMILES: CC(C)C[C@@H]1NC(=O)[C@@H](CC(C)C)NC(=O)[C@H](C)NC(=O)[C@@H](CO)NC(=O)[C@H](Cc2c[nH]cn2)NC(=O)[C@@H](Cc2c[nH]c3ccccc23)NC1=O
B6: [lLwHaK]: Cyclo-D-leucine-L-leucine-D-tryptophan-L-histidine-D-alanine-L-lysine (peptide)
peptide: cyclo([dL]L[dW]H[dA]K)
SMILES: CC(C)C[C@@H]1NC(=O)[C@@H](CC(C)C)NC(=O)[C@H](CCCCN)NC(=O)[C@@H](C)NC(=O)[C@H](Cc2c[nH]cn2)NC(=O)[C@@H](Cc2c[nH]c3ccccc23)NC1=O
B7: [lAwHsK]: Cyclo-D-leucine-L-alanine-D-tryptophan-L-histidine-D-serine-L-lysine (peptide)
peptide: cyclo([dL]A[dW]H[dS]K)
SMILES: CC(C)C[C@H]1NC(=O)[C@H](CCCCN)NC(=O)[C@@H](CO)NC(=O)[C@H](Cc2c[nH]cn2)NC(=O)[C@@H](Cc2c[nH]c3ccccc23)NC(=O)[C@H](C)NC1=O

These binders were tested against Aβ40 (UniProt P05067 672-711) (assay: cell-based or functional assay).
Aβ40, sequence (P05067 672-711 limits assumed): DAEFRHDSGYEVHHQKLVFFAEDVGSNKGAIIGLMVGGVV

In order of falling “Inhibition at 1:1 (ThT assay, Aβ:cyclic peptide)” value:
1. B3  73%
2. B5  67%
3. B1  60%
4. B6  56%
5. B4  53%
6. B7  44%
7. B2  4%

In order of rising “Inhibition at 1:1/3 (ThT assay, Aβ:cyclic peptide)” value:
1. B7  3%
2. B2  5%
3. B4  12%
4. B1  32%
5. B6  47%
6. B5  48%
7. B3  49%
